Source: paper PMC4140821, “Structural and Biochemical Characterization of the Cop9 Signalosome CSN5/CSN6 Heterodimer” (PLoS ONE, 2014)

What was measured:
[1] = target: the molecule itself; experiment: crystal structure; CSN6^ΔC alone; crystals at 18°C in 0.2 M tri-sodium citrate, 0.1 M Bis-Tris propane pH 6.5, 20% PEG3350; dimer generated by the crystallographic 2-fold
[2] = target: T1, CSN5^ΔC,WT (human CSN5 1–257 fragment) (human, UniProt Q92905 1-257); experiment: ITC; CSN6^ΔC (WT and variants; 1 mM, 30 injections of 1.8 µL) injected into CSN5^ΔC (WT and variants; 100 µM) in the cell; 20°C; 20 mM Na MES pH 6.5, 75 mM NaCl; one site model; apparent; conditions: both partners purified
T1 construct: COP9 signalosome subunit 5 (CSN5, Jab1), human, residues 1-257 (MPN domain with N- and C-terminal appendices); also called CSN5 catalytic domain; Jab1 fragment

CSN5^ΔC,R106T = target: T2, CSN5^ΔC,R106T (human, UniProt Q92905 1-257, R106T); experiment: as above; conditions: both partners purified
T2 construct: COP9 signalosome subunit 5 (CSN5, Jab1), human, residues 1-257, R106T in the Ins-1 region; also called conformationally-relaxed CSN5^ΔC variant; R106T variant
T2 sequence (Q92905 1-257 R106T): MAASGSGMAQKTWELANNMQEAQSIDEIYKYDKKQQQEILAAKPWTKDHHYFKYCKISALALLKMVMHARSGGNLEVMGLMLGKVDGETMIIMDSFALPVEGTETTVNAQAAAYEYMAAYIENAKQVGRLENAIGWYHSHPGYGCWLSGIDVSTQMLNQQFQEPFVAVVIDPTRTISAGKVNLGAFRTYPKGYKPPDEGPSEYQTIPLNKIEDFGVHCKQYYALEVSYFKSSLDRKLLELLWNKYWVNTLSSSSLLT

T1 sequence (Q92905 1-257, stated change not applied): as the sequence (Q92905 1-257 R106T) above, with T106R counted along it

Row | Kd [2] [µM] | binding result (CSN5^ΔC,R106T) | fold reduction in binding against WT CSN6^ΔC [2] [fold] | Binder | binding result [1]
1 | 6 ± 1 | binds | – | CSN6^ΔC (human CSN6 31–211 fragment) (domain or fragment, UniProt Q7L5N1 31-211, looked up, COP9 signalosome subunit 6 (CSN6), human, residues 31-211 (MPN domain with a C-terminal extension); Cloned in pGEX-6P1; Uniformly 15N-labelled for NMR; also called CSN6 N-terminal domain; CSN6 MPN domain; source: LB or 15NH4Cl M9 medium for NMR; not shown: GST, N-terminal, cleaved) MACGVTGSVSVALHPLVILNISDHWIRMRSQEGRPVQVIGALIGKQEGRNIEVMNSFELLSHTVEEKIIIDKEYYYTKEEQFKQVFKELEFLGWYTTGGPPDPSDIHVHKQVCEIIESPLFLKLNPMTKHTDLPVSVFESVIDIINGEATMLFAELTYTLATEEAERIGVDHVARMTATGS | binds
2 | – | – | 5 | CSN6^ΔC,V115E (domain or fragment, human, UniProt Q7L5N1 31-211, looked up, COP9 signalosome subunit 6 (CSN6), human, residues 31-211, V115E; everywhere else V115E; also called V115E variant; not shown: GST, N-terminal, cleaved) MACGVTGSVSVALHPLVILNISDHWIRMRSQEGRPVQVIGALIGKQEGRNIEVMNSFELLSHTVEEKIIIDKEYYYTKEEQFKQEFKELEFLGWYTTGGPPDPSDIHVHKQVCEIIESPLFLKLNPMTKHTDLPVSVFESVIDIINGEATMLFAELTYTLATEEAERIGVDHVARMTATGS | –
